Target: T1, His-OpaR (Vibrio parahaemolyticus RIMD2210633) (UniProt Q79YV4)
T1 sequence: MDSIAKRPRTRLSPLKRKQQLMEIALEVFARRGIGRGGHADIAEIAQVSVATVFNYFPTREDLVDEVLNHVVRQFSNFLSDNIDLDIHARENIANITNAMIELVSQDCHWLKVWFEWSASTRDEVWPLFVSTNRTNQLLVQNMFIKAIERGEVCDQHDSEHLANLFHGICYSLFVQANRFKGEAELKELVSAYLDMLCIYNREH
Experiment: DNase I footprinting
Settings: Buffer, salt, pH and temperature not given (as in Zhang et al., 2012, 2017); EMSA on 6% polyacrylamide gel; footprinting with 0, 6, 9, 12 pmol His-OpaR

Row | Sequence | binding
1 | CTTACCTTGGCGTACCTCTTGCCAATCCGTACTTTCAAATAAATCGCCTTGTCCTTGCATCCCGTTGCCTATTTAAACCATAAAAATTTCAGATAATTATTACCTTTGCAAAGGCTATTGGTTATTCTTGTAGATAATAAGAATTTTAACAATAAAAGAATAATTCTCGTAGTAACGGACGAGCTAGTGGGGAGCTAATGCGTTATTCACCCAGAAAGCAGT (double strand) [VPA0198 footprint probe] | binds
2 | CCACTCCTCTTACAAGAATGAGGACGACATCAAGAAAATATTAAAAAATGGATAATTAACCATCGGTTAAGCGTAATAACTAATGACGCTATAAAGTTTTTTGTTATTATCAGTTAATTGTCAGTAGTACATGGACTTAACCGTAGTCGTTTCATGGGAATCTTGGAATCCGATATT (double strand) [VP0699 footprint probe] | binds
3 | CCATTAAGTGACTTTAGTTCCACTTTTTTAGCTTATTTGATGACATAAGCAACAGTTTCGCCTCCAACCAATAAACAACTGAATACATATTAAAATATTCATTAAATTGACTATTTTTATGATAAACGCTTAATAATAGTTTTATCTATAAACAAACAGTGAGCTTTGTTATAAATTCATTAAAAATTTAACTTTGTATTAATTAGAAAATTCAGCGTCATATTTGTTCAACTGCGA (double strand) [scrA footprint probe] | binds
4 | GCTTTTCTAGGCACAAAATGACTTTAGAATGGATTAATGCGAAAGCAATTAAAAAAGTGTGAGTAACGGCTGCAAACTATTGATTTCAATGTCAGGTAACGTACGTGTTCTTGAATGATTAATGACATTTTTATTCATATCATTAAACCAACATGCGGCAAAACCCGCTAACTTTGCACCATATACATCCGTCGTGAGGTGGTCACCAACATGCAAAATGTTTTCGGCAGGTAAATCGAGGAACTGCT (double strand) [VP2979 footprint probe] | binds
5 | AGACAATCACACCGATAGCCAGTAAGAAAATCATCACAAAAGGGATGAGTACAGCAGTACGTAGTGTAATTTGAGTCTTTGCAGTAGACATTGCCTAGTCACATTAGGGATGGTTCACCTTAATTGTACTGACATTTCTGTTAATATCGAGCGCTAAGCACTCTCATTGTTAACTCACTGCTTAAGTGACGGTCAGTACAACTCTTTTAACTTTCTGGTTAGCGTATTGCGTCCCCAGCCTAATACTTTAGCGGCATCTTGCTTGTGACCTTTAGTGTG (double strand) [VP0117 footprint probe] | binds
6 | GCCATATTCCAAACTCGTTGTGCCTGCCTTTTCAAGAACTGCTGGATAACGGTTACATCAAACCGAACTCAGAATTGAAACAAGCATTTAGCGAACTGTCGCTATATAATGACAATTCAATCATTTTCAGCTGTGGCTCAGGTGTGACTGCCTGTATTTTATTGTTGGCAGCTCATCAACTTGGCTTACGCA (double strand) [VPA1176 footprint probe] | binds

Reference: article PMC8215210
